Paper PMC8753184

Assay: preparative SEC and analytical FSEC homogeneity
Conditions: glycan lost; control: mG6PC1-WT

B1: mouse glucose-6-phosphatase catalytic subunit 1 (mG6PC1): N96A (protein)
parent chain: MEEGMNILHDFGIQSTRYLQVNYQDSQDWFILVSVIADLRNAFYVLFPIWFHLKETVGINLLWVAVVGDWFNLVFKWILFGQRPYWWVLDTDYYSNSSVPIIKQFPVTCETGPGSPSGHAMGAAGVYYVMVTSTLAIFRGKKKPTYGFRCLNVILWLGFWAVQLNVCLSRIYLAAHFPHQVVAGVLSGIAVAETFSHIRGIYNASLRKYCLITIFLFGFALGFYLLLKGLGVDLLWTLEKAKRWCERPEWVHLDTTPFASLFKNLGTLLGLGLALNSSMYRKSCKGELSKLLPFRFACIVASLVLLHLFDSLKPPSQVELIFYILSFCKSATVPFASVSLIPYCLARILGQTHKKSL
  stability_or_folding: no change
